Series [1] relates to ZFN7263 (host) (artificial). Kind of series: cell_activity. The settings on record: yeast, paired with 7264 ZFN.
For series [2], the system named is ZFN7263 linker TPRPPIPKP (artificial). Kind of series: cell_activity. The settings on record: yeast, paired with 7264 ZFN.
The test system of series [3] is ZFN7263 linker TYPRPLLAKP (artificial). Kind of series: cell_activity. The settings on record: yeast, paired with 7264 ZFN.
Series [4] concerns ZFN7263 linker TGGGGSQKP (artificial). Kind of series: cell_activity. The settings on record: yeast, paired with 7264 ZFN.
For series [5], the system named is ZFN7263 linker TPLCQRPMKQKP (artificial). Put plainly: cell_activity. The settings on record: yeast, paired with 7264 ZFN.
In series [6] the test system is ZFN7263 linker TQRPQIPPKP (artificial). Kind of series: cell_activity. The settings on record: yeast, paired with 7264 ZFN.
For series [7], the system named is ZFN7263 linker TPNRCPPTKP (artificial). Kind of series: cell_activity. The settings on record: yeast, paired with 7264 ZFN.
Series [8] deals with ZFP8196 linker 1f center linker F2-F3 TGEKP replaced by TYPRPIAAKP (artificial). Kind of series: ELONA. Particulars: normalized ELISA score. (In an ELISA, binding on a coated surface is turned into a signal by an enzyme label.)
The test system of series [9] is ZFP8196 linker TVSPAPCRSKP (artificial).
The subject of series [10] is ZFP8196 linker LRQKDERP (artificial).
In series [11] the test system is ZFP8196 linker TCPRPPTRKP (artificial).
Series [12] concerns ZFP8196 linker TSPRLPAPKP (artificial).
The subject of series [13] is ZFP8196 linker 1c (artificial).
For series [14], the system named is ZFP8196 linker TEPRAKPPKP (artificial).
Series [15] deals with ZFP8196 linker TSSPRSNAKP (artificial).
Series [16] relates to ZFP8196 linker TGEGGKP (artificial).
Series [17] concerns ZFP8196 linker TPDRPISTCKP (artificial).
For series [18], the system named is ZFP8196 linker TGGGGSQKP (artificial).
For series [19], the system named is ZFP8196 linker TPSHTPRPKP (artificial).
Series [20] concerns ZFP8196 linker TPDAPKPKP (artificial).
In series [21] the test system is ZFP8196 linker TPGLHRPKP (artificial).
For series [22], the system named is ZFP8196 (host, center linker TGEKP) (artificial).
Series [23] has as its system ZFP8196 linker 1d (artificial).
Series [24] deals with ZFP8196 linker TGYSIPRPKP (artificial).
The subject of series [25] is ZFP7263 linker TYPRPLLAKP center linker F2-F3 TGSQKP replaced by TYPRPLLAKP (artificial). Kind of series: ELONA. Particulars: normalized ELISA score.
The test system of series [26] is ZFP7263 linker TQRPQIPPKP (artificial).
The test system of series [27] is ZFP7263 (host, center linker TGSQKP) (artificial).
The subject of series [28] is ZFP7263 linker TGGGGSQKP (artificial).
Series [29] has as its system ZFP7263 linker LRQKDERP (artificial).
Series [30] has as its system ZFP7263 linker TPNRCPPTKP (artificial).
Series [31] deals with ZFP7263 linker TPRPPIPKP (artificial).
Series [32] relates to ZFP7263 linker TGEGGKP (artificial).
Series [33] has as its system ZFP7263 linker TPLCQRPMKQKP (artificial).
For series [34], the system named is ZFP7264 linker 1e center linker F2-F3 TGSQKP replaced by TVPRPTPPKP (artificial). Kind of series: ELONA. The settings on record: normalized ELISA score.
For series [35], the system named is ZFP7264 linker TGEGGKP (artificial).
The subject of series [36] is ZFP7264 linker TLPPCFRPKP (artificial).
In series [37] the test system is ZFP7264 linker TGGGGSQKP (artificial).
Series [38] deals with ZFP7264 linker TSRPRPKP (artificial).
Series [39] deals with ZFP7264 linker TKHGTPKHREDKP (artificial).
Series [40] has as its system ZFP7264 linker TLPLPRPKP (artificial).
In series [41] the test system is ZFP7264 linker LRQKDERP (artificial).
Series [42] concerns ZFP7264 linker TGLPKPKP (artificial).
Series [43] has as its system ZFP7264 (host, center linker TGSQKP) (artificial).

“ACTCTGACTGGAAG (double strand) [7263 yeast half-site gap AC]”: the activity (normalized MEL-1) is 0.09 in series [1]; 0.05 in series [2]; 0.1 in series [3]; 0.04 in [4]; 1.05 in series [5] (value as printed); 0.03 in [6]. Besides, the activity (normalized MEL-1) in series [7] was 0.04.
In the case of “ACTCTGATGGAAG (double strand) [7263 yeast half-site gap A]”, the activity (normalized MEL-1) in [1] was found to be 0.05; in [2] it was 1.3; in [3], 0.69; in [4], 0.14; in series [5], 0.97; in [6], 1.05. This sequence displayed an activity (normalized MEL-1) in [7] of 1.3.
“ACTCTGCTGGAAG (double strand) [7263 yeast half-site gap C]”: the activity (normalized MEL-1) worked out at 0.05 in series [1]; 1.41 in [2]; 0.37 in [3]; 0.04 in [4]; 0.3 in series [5]; 0.43 in series [6]. This sequence also showed an activity (normalized MEL-1) in [7] of 0.34.
Take “TTAGATAAACTGACAAAAGGCTATC (double strand) [8196 target gap A]”: the binding signal in series [8] is 0.41. The binding signal (normalized ELISA) in series [9] came to 0.03; in [10] it was 0.01; in series [11], 0.18; in series [12] it was 0.26; in [13] it was 0.2; in series [14], 0.39. Moreover, the binding signal (normalized ELISA) is 0.05 in series [15]; 0 in [16]; 0.11 in series [17]; 0 in [18]; 0.3 in [19]; 0.16 in series [20]. For the same sequence, the binding signal (normalized ELISA) in series [21] was 0.19; in series [22], 0.01; in series [23] it was 0.23; in series [24] it was 0.13.
“TTAGATAAACTGCCAAAAGGCTATC (double strand) [8196 target gap C]” displayed a binding signal in [8] of 0.14. Besides, the binding signal (normalized ELISA) amounted to 0.01 in [9]; 0.01 in [10]; 0.05 in [11]; 0.14 in series [12]; 0.09 in series [13]; 0.17 in [14]. The binding signal (normalized ELISA) in series [15] came out at 0.02; in [16], 0; in series [17] it was 0.05; in series [18] it was 0; in series [19], 0.13; in series [20], 0.13. Also, the binding signal (normalized ELISA) in series [21] was 0.1; in [22], 0.01; in series [23], 0.09; in [24], 0.06.
Consider “TTAGATAAACTGGCAAAAGGCTATC (double strand) [8196 target gap G]”, for which the binding signal in series [8] turned out to be 0.65. Besides, the binding signal (normalized ELISA) amounted to 0.14 in [9]; 0.04 in [10]; 0.48 in series [11]; 0.62 in series [12]; 0.57 in series [13]; 0.78 in series [14]. Besides, the binding signal (normalized ELISA) is 0.2 in series [15]; 0.03 in series [16]; 0.29 in series [17]; 0 in series [18]; 0.84 in series [19]; 0.68 in series [20]. Moreover, the binding signal (normalized ELISA) stood at 0.65 in series [21], 0.03 in series [22], 0.52 in series [23] and 0.43 in series [24].
Turning to “TTAGCCACTCTGATGGAAGTGTATC (double strand) [7263 target gap A]”, the binding signal in [25] worked out at 1.95. In addition, the binding signal (normalized ELISA) in [26] turned out to be 1.66; in [27] it was 0.01; in series [28], 0.06; in [29], 0.03; in series [30], 1.68; in series [31], 0.97. For the same sequence, the binding signal (normalized ELISA) worked out at 0.02 in [32] and 1.82 in series [33].
“TTAGCCACTCTGCTGGAAGTGTATC (double strand) [7263 target gap C]” displayed a binding signal in [25] of 1.27. The binding signal (normalized ELISA) turned out to be 1 in series [26]; 0.01 in [27]; 0.05 in series [28]; 0.02 in series [29]; 1.13 in series [30]; 0.67 in [31]. In addition, the binding signal (normalized ELISA) in series [32] turned out to be 0.02; in [33], 1.28.
For “TTAGCCACTCTGGTGGAAGTGTATC (double strand) [7263 target gap G]”, the binding signal in series [25] was determined as 3.88. Moreover, the binding signal (normalized ELISA) in [26] came to 2.86; in series [27], 0.03; in [28], 0.41; in series [29], 0.18; in [30] it was 2.62; in series [31] it was 1.85. For the same sequence, the binding signal (normalized ELISA) in series [32] came out at 0.05; in [33], 3.44.
In turn, “TTAGTTAAAGCGAGCTCCGAATATC (double strand) [7264 target gap A]” had a binding signal in [34] of 2.35. Moreover, the binding signal (normalized ELISA) stood at 0.02 in [35]; 0.72 in series [36]; 0.07 in series [37]; 0.52 in series [38]; 0.01 in series [39]; 0.58 in [40]. Also, the binding signal (normalized ELISA) in series [41] is 0.05; in series [42] it was 0.19; in series [43], 0.
The sequence “TTAGTTAAAGCGCGCTCCGAATATC (double strand) [7264 target gap C]” had a binding signal in series [34] of 1.02. In addition, the binding signal (normalized ELISA) in series [35] came out at 0.03; in series [36], 0.25; in [37] it was 0.04; in series [38], 0.22; in [39] it was 0.01; in [40], 0.25. Moreover, the binding signal (normalized ELISA) was 0.03 in series [41], 0.11 in [42] and 0 in [43].
In turn, “TTAGTTAAAGCGGGCTCCGAATATC (double strand) [7264 target gap G]” yielded a binding signal in [34] of 1.58. Moreover, the binding signal (normalized ELISA) in series [35] came out at 0.05; in series [36] it was 0.77; in series [37], 0.08; in series [38], 0.77; in series [39] it was 0.01; in [40] it was 0.85. Also, the binding signal (normalized ELISA) stood at 0.06 in [41], 0.38 in series [42] and 0 in series [43].

The values are drawn from US20110287512.
